Data on 47 sequences can be found in the NTF2 design screens of Basanta et al. (2020).

The data set in a line: protease stability score; higher = more stable; yeast display proteolysis, trypsin and chymotrypsin.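 Also: log10 excess protease needed over predicted unfolded state with 0 meaning unfolded.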

As to “DEQDQLKLAERVLKAVNDNNPQKFEELADENATVKVGDKTWHGRSHAQEMIKRFKERVDSLEIKHIDNRGNRARVHLVLEHNGRTTEMSIVVTVENGRAKAVVVHTK”, the protease stability score is -0.133. In turn, “DEQEDRDMKKMYKNLQEGDDQRVADMADPNARWRVGDKTYHGKDSIRHWAKEVHDRMHFRIQSITVQNENGKVKVEIKWVTDENGKPVDQTVQVKAELHNGHIVDIDITTQS” came in with a protease stability score of 0.731. Sequence “DEQEDRDRLEEALHAVMTGDEDRLMELADPNVEIQIGDKTFHGNTEARKVVETLKRKVDHLRVEEITKRPGSAFVIAVMEVNGKQVTVTVRIQAENGRIVHVSMNPKQLQDLKS” gave a protease stability score of 0.776. The sequence “DEQEERDFNRNMVEILQQGDEEKARTNMDKDAHATYGDREYHGREQLADLLKEFRDRVDHIEMKDYSVTNGRVNVVFVAVFDGKRVELHADIQFRNGRIKRMTFKFRNEEQQKKLER” yielded a protease stability score of 0.361.

“DEQEHAKRVVRRLIDAFKDGDPKTYAQQLDPNVRIQIGDKEITGREKVREEFRTVRQRVDHVNLHVKRVDVNGDKIVVQIRVVRKHNGRTEQRTLVVEVRDHNGREVVKHVSFK”: the protease stability score worked out at 0.884. The sequence “DEQEKAERLAKTAVEAYETNDPEVMRRLLPPDAEVRVGDKEIHGREENSRQVQRELDRVDRVQVSMKTVHVDGNKLNVVLELRVEHDGETDTREIVIIFDVRNGTIQAQEINIG” showed a protease stability score of -0.05. “DEQELAEELFRDLTEAMKKGDPEQRKDLADEDVHQQVGDKTYHGREDNMKAMEELKRNYDSISIKLTSLSVHNGKVRIVFKVDFEHNGKTSTRRVVAHAYLQGDKVKIKKISEQ” showed a protease stability score of 0.749. “DEQENEKNVKDVQHAMETGDEELMLRNAPPDVRMEIGDKTLRGREEVSKEFKKFAKQIDRHSIHSIRFRGDKFEINMVVTVNGRHAVVNIELQIHNGKVNSMRVDPHDLEQQKQ” showed a protease stability score of -0.249. With “DEQENKEIMRRVKEAFEHNDPDMFKKLFDEDATVEVGDKSFQGRDKIKEAMTQFKNQADRVRVDSVNVRGNKVDATVTADFNGKTASFKLEITWHNGKIKHMRINPEDNKKLQG”, the protease stability score worked out at 0.951.

With “DEQEQAEELAKKMMENMETGDFDKRANQADPDARMEIGDKDVRGRETIASHQRELSDHIDHANATVLEVRVSNGDVEVRMQFRVQHNGRSRQEERIINATISGDKMRIKEFTQS”, the protease stability score was -0.116.

Sequence “DEQEQAKDFARQLQKVFRYGDEERARQLADKHVKVNVGDKIFHGREKVQKWIREIKNRSDKYKIDIKSIRVKNGRITIEFKAQEEFNGERRRVTVNAKAKLDNGEIRLTSVDQK” yielded a protease stability score of 0.128. On to “DEQERAERLMEEMVRVLHTGDEKRLQQLADPNARFTIGDTRVHGSDEFARLLREHADNADSMQFRVKSIEVEGNHINIKFSFSVDINGRTESYTANIRIVEKGDKMQFHTQDMK”, for which the protease stability score came out at 0.402. “DEQERAQEALRRFLRVFQEGDPDRARQQADKDVQMVVGDKEYEGREQVSRAIESLRERVDEFHITVRRITVSGNRVVVDAKLKLNINGKEDDVTLKLVIDVSGDKISIKRVEVR” registered a protease stability score of 1.12. The sequence “DEQEVREAAEVIVTGNEEQLRDNADPNVKLQVGDERYHGREHFVRMISKFQKQVDHRSVDHFHVKGDKVRINMVMHINGQHVVLQINAQIHNGRIKSMEIKVRDEKDKRILDQVEG” had a protease stability score of 1.76. The sequence “DEQHDREMVSRLKTALQHGDPDELVELADENARVEIGEKTVHGRHQIREQAKRWRERVDHVQIEDVDVQNGQARVQMTVDHNGRTRKEVVQMTAHNGTVESLRFQSQ” showed a protease stability score of -0.216. As to “DEQIVHRAKEMDKAFNRGDPDLFNKMADENARVEVGDNVLNGRSDYKRYMDQVRKDLNVEIKSVHHQKRPNHARVKVDQVMNHNGQPRRRHIDIKIRAHNGTAKNIHFREDG”, the protease stability score is -0.326. Turning to “DEQKDAERAIEALRVMLQGDDDSVRKMVDPNATLTVGDTEYKGREEFVKYARTLRRRADHFRIDTVHVEGDTAVMQAQVNVNGKTKTIRINVRAHNGRVVHVHVDPDQLKRIES”, the protease stability score was 0.831. As to “DEQKDDKRSKDIKKQVEKGNEHEILKLFDKDAKVRVGDKVVQGRESIKDEIHHLRRRVDNIEVKEVHAQGDKVTVDVQVDVNGVQIRQVLHIQMNNGKVTDAKVEFTNEEQLRQMHG”, the protease stability score was 0.099. The sequence “DEQKDEEIRRVIENNDWTEVKELADENVKASVGDKRYHGREEMEKFWKIVHDRADHIEYQDIHVHNGQFNAQVVINVNGQELDVQITMRAENGKITNMSIHATSEEVKERIKEMFS” showed a protease stability score of 0.73. On to “DEQKEAEDIINTWREVLKDNDTDKARELADKHVRVVVGDKELHGREDFVRYFHEVAHRVDHIDIDVLDLTVHNGRIHFEADAVADVNGRKDTFVIRMVWQSQGDKHNMQEMHVP”, for which the protease stability score was -0.09. The sequence “DEQKEMKRFANQFNSAIRHGDEKKMADLFDPNARMEVGDTSWNGRRNLEKEWKRRNETIDHARVHLQDVSVDGNSATVVFVLVENVNGEERNDVYVFVAVKHNGKIVIDHMTQK” had a protease stability score of 0.159. Regarding “DEQKERDKAKKIARNFQKNNEHRFEEMMDPNVKFVYGDKEVNGRDTYRKNLHELMTRADSVDIDHVDVRNGRVNVNLVVEVNGNRAEDRVQFTVHNGHIVKVNIDPKVMETAKS”, the protease stability score was -0.326.

“DEQKIKELLYKAAEAYINGNDELVRKLLKDDGKLEAGDYEYRGVDQVVKVAQDFKKYGVELEIKNYKYDGDRLDVEVELHLGGTTWKFTVTVQADGGKVDKVQFHFSEEARKRIQDG”: the protease stability score stood at 0.447. The sequence “DEQKLAEDLAKEIIKALETGNSHRLHELMDENARLRVGDKDYTGDHRIAKWMKHKRDRVDRVEATIQEIDADGDKVTIVIEIVFDHNGRRERVIVDARAEIRGDKVRMKELHWS” yielded a protease stability score of -0.101.

In the case of “DEQKQAHDLLRQLDEAMRENDPDTMRDLFDKDAHVKVGDKEFRGTQKVREFNEELKRQADHFSVDVKRMETRPGHFNVQLVLHMETNGRTDHLKFRVRMRVVNGRAVVVTLHQG”, the protease stability score came to 0.692.

Sequence “DEQKQRDFAHTYKDVFNTGDPDEQRKMVDPNARAQVGDNDFHGDEEFDKWAEERRDRVDHVEIRSMSVHGNKVSMDVDVVYDGRRVRFSMRMEYHNGRFKHFKVNPDSQRKLEG” returned a protease stability score of 0.615. Turning to “DEQKTRQLEEVKKQLEHGNEREAKKNFDENVHINVGDKQIHGMHDAAREMATSWTQIRNEMTITRVHVRGDKIEIRASMVQNTNGRPRKAKVHIDVRINNGKIKRVTVKYDG”, the protease stability score amounted to 0.181. In turn, “DEQLNKHFVRLMQNNDFEELVRNADKDVRVRIGNKEYQGREEANTALKTFHKQVDKLTIRSYDYHNGSAKIDLEVRFNGQKFRFVVTARLHNGKMKSMRINFTNPEDQKQLDRDMS” showed a protease stability score of 1.41. “DEQLRDRVTQLFKVWQTGDPKKVSEMFDKDARLEYGDKTVHGMEEARHQQDTRRREARLSLDIRSINVQGNQVEIDVRIEEDENGKPDTKQVTIRIRARNGRIHNAKLQDDG” had a protease stability score of 0.1. As for “DEQLVKILQRFRKAMEHGDPKEAQKYFDPNAEFVYGDKEIHGREQVNTWIHTFMRSIRVDIKSLTVRASGNKAHIQYSAVYEENGRPKTAHFHMTVQVTNGKIKHADVKYRG”, the protease stability score turned out to be 1.1. “DEQNEAKRLVEKLQSIVKSGDEEEWMKQFDENVKVSVGDKTVHGREDMVKQYQQHVKRADTMELQVNEYSVHNGRVSIRYKMRVDVNGQRHTTEAHVDFRNVNGRFKAQSVNQK” came in with a protease stability score of 0. “DEQNLQDAAQRVDEVLRKGNEEDVTKMMDKDATMTVGDKVIHGRSKVRQQVRRLHEQVDHQEVEYVTAHNGRIKINMQADVNGQSLTFTVHIKVRNGRVKEIQIDPDYKRNLDR” registered a protease stability score of -0.224.

“DEQNQIKKIADDLETAARTNDPDKLLNMVDPNAKITYGDEEVHGRREAKRWLKEVNDHVDHMHVDIKRVHASGDKFTLRYRLVLVQNGKKDTTRVVATLRRTDGRVQIQSIDSG” returned a protease stability score of 0.033. Sequence “DEQQAKRVAEEFNRVLQTGDNRKAMQLADKDVKLHVGDKDVHGRETMMKLVRKERDRVDHVEIKEVTIQGNKIDVILTVVVNGRHKEKHYVLHLHNGRIEDLSVRST” had a protease stability score of 0.005. “DEQRIADNLDERFRRVMENNNEDELRKLFDKDARVRVGDKTLHGREEVDKRLREILQRADHIDIKVNDIHVRGDKINIHFKIRIVVDGRDRFYTAVVRADVHNGEAKIVELKQS” gave a protease stability score of 0.213. With “DEQRQAEEWVDKLESELHDGDFTKFANMADENARIVIGDKEIHGRENLQEHAKELKHRVDHVEMHVRHLYVTNGTLTVDVDMVLNHNGQRDKRRVVIVATSENGKFRAQHVTYS” the figure was 1.05. “DEQRYRELMETAFHLVISGDEDTLDQIGKPNMEYHYVDRTLHGKDVLRVLVKIVKRVGAEARVEEAEVNGDTARAKFQYRKGDNTVQTDAEVKYEGDQIKKARVRLNDEVRKVLKDG” returned a protease stability score of 0.174. With “DEQSEAEKFARDIQKIANHNNFERLARMADKDVKYNVGDKVITGEEKAIEHHRRLQKQFDSMRLEIESVRVQGEKIVVVARYTVEVNGTTRSERFVLVAEVHNGTIRIKTVQQG” the figure was -0.167; with “DEQSVAEELFENLQDAVRENNPDEYKKLVDPNVNFDVGDKKVHGREQASEKFRQDLERADHIDMKVTSLRVDNGRAQADVRVTRVINGESETVEYILRFEVHGDEAVVKSQHDK”, 0.45; with “DEQTAAKKANELAEAISTGDPERVMELADKDVKVVVGDKTYHGKEDLREMAKRFRDRVDHAQIDSVTNDGEHAKIHMRVEVNGHTVEIDLVIEARNGHAKHLQVDPDDQRKLEG”, 0.919. “DEQTHAEELARNFVTAIRTNNDQDIRDLFDKDARVEVGDKTIHGRENIARSIITIAKRVDSVDIRIQHVEVQGDKINIKMERRYDHNGQEHKKDLTMVARLTNGHMRIKVVKMD”: the protease stability score stood at 0.885.

Consider “DEQTKAERFVQRVEEILKHGDEKKYAHLADKNVKVKYGDKEWHGREHWEKEVKKTRDKVDDIRIDYKELQVHNGKVDVRFQVRNNHNGKNESRDASYTLDDHNGRIRIQSMHVK”, for which the protease stability score is -0.009.

“DEQTKAQQFAEDVVKANQQNDKDRLTEQFDKNARVQVGEKEVHGREHIMEELIKLMTEADKVDVKVRHVHAQGDKVHLDIHFRMRVNGQDHDSRMTIVARNSNGTVVIESVDVK”: the protease stability score was 1.19. Turning to “DEQVLRVLNEYLEDLKRNNEERLRKLADPNVKFQVGDKTLHGMEDAVNHWRHLLDHMELRIDITEVNVSNGRAVVNARASQNVNGRPNDNEVQIVAEAHNGTLKFVEWRFDPDRQRKIDS”, the protease stability score amounted to 0.114. As for “DEQVQKQFKEAMRNREKGDKDKVVENFDKHVKVSVGDRTYHGMDDIARRQNEHMKEIRVEYRDVKMSVDNGKIVIHVRQQLEDNGEPREFSYTAEANATNGRIKSYRVDMDPEQVREVDR”, the protease stability score was -0.215.

Take “DEQWLNRLNRVFEHNNEEDLIKNMDPNVRVEIGDKRVRGRHKVKEALDRLKEEADHLQLKSVHVQGDKVSATMEMVVNGKHVQMTVTIEFTNGRIKNQRYKATDEKDKKVINDIMG”: the protease stability score was 0.34. Turning to “DERAADAIERLLKAMKDNDPSELSKQADENVHFDVGEKKYHGMETYARTVAKERHDAEQTYRLKDYRVDENHVSFNMRVVQTNNGKPVDVEAILRANVKGDKVKSMRIDEHK”, the protease stability score is -0.23.
